Results on five molecules are retold here after PMC4774423 (Frontiers in Immunology, 2016).

The labels stand for the following.
B1: recombinant human calreticulin (natural protein, UniProt P27797 18-417, looked up)
chain: EPAVYFKEQFLDGDGWTSRWIESKHKSDFGKFVLSSGKFYGDEEKDKGLQTSQDARFYALSASFEPFSNKGQTLVVQFTVKHEQNIDCGGGYVKLFPNSLDQTDMHGDSEYNIMFGPDICGPGTKKVHVIFNYKGKNVLINKDIRCKDDEFTHLYTLIVRPDNTYEVKIDNSQVESGSLEDDWDFLPPKKIKDPDASKPEDWDERAKIDDPTDSKPEDWDKPEHIPDPDAKKPEDWDEEMDGEWEPPVIQNPEYKGEWKPRQIDNPDYKGTWIHPEIDNPEYSPDPSIYAYDNFGVLGLDLWQVKSGTIFDNFLITNDEAYAEEFGNETWGVTKAAEKQMKDKQDEEQRLKEEEEDKKRKEEEEAEDKEDDEDKDEDEEDEEDKEEDEEEDVPGQAKDEL
notes: human calreticulin, recombinant; also called CRT
B3: gC1qA module of C1q-scGR (residues 88-223 of mature C1qA) (domain or fragment, human, UniProt P02745 110-245, looked up)
chain: KDQPRPAFSAIRRNPPMGGNVVIFDTVITNQEEPYQNHSGRFVCTVPGYYYFTFQVLSQWEICLSIVSSSRGQVRRSLGFCDTTNKGLFQVVSGGMVLQLQQGDQVWVEKDPKKGHIYQGSEADSVFSGFLIFPSA
modifications: N-glycan at Asn 124
notes: globular domain of human C1q chain A; numbers count on: the mature protein; In the crystal it is joined on one chain with gC1qC (Gly-Ser-Gly linker) and gC1qB: see m1; also called subunit A; source: 293-F cells, as part of the single chain C1q-scGR, purified
B5: recombinant human receptor for the globular heads of C1q (gC1qR) (receptor, UniProt Q07021 74-282, looked up)
chain: LHTDGDKAFVDFLSDEIKEERKIQKHKTLPKMSGGWELELNGTEAKLVRKVAGEKITVTFNINNSIPPTFDGEEEPSQGQKVEEQEPELTSTPNFVVEVIKNDDGKKALVLDCHYPEDEVGQEDEAESDIFSIREVSFQSTGESEWKDTNYTLNTDSLDWALYDHLMDFLADRGVDNTFADELVELSTALEHQEYITFLEDLKSFVKSQ
notes: the mature protein is recalled to begin at residue 74 of the precursor; also called receptor for C1q globular heads

Common to all, as to conditions: both partners purified
Test [1] concerns the target T1, C1q purified from human serum (full-length C1q) (human, UniProt P02745 23-245; P02746 28-253; P02747 29-245).
T1 construct: also called intact C1q; native C1q; source: purified from human serum; copies: 6 + 6 + 6
In words: SPR; Biacore 3000, 25°C; CRT, gC1qR and PTX3 amine-coupled on CM5; C1q samples flowed at 20 μl/min in 50 mM Tris-HCl, 150 mM NaCl, 2 mM CaCl2, 0.005% P20, pH 7.4; global fit 1:1 Langmuir (two-state model for C1q-CRT); apparent KD. Background: Surface plasmon resonance follows binding to a sensor surface in real time, without labels.

Test [2] deals with T2, globular regions of C1q prepared by collagenase digestion of serum-derived C1q (C1q-GR) (human, UniProt P02745 112-245; P02746 118-253; P02747 115-245).
T2 construct: globular region of human C1q chain A left after collagenase digestion; globular region of human C1q chain B left after collagenase digestion; globular region of human C1q chain C left after collagenase digestion; Heterotrimer of the three globular modules; Mw 48,000 used for concentration; also called serum-derived C1q-GR; plasma-derived C1q-GR; source: collagenase digestion of C1q purified from …
The description is as above.

For test [3], the target named is B3. In words: crystal structure; C1q-scGR crystallised with and without calcium in the reservoir; 1.35 and 1.55 Å.
In test [4] the target is T3, gC1qB module of C1q-scGR (residues 90-226 of mature C1qB) (human, UniProt P02746 117-253).
T3 construct: globular domain of human C1q chain B; numbers count on: the mature protein; In the crystal it is joined on one chain after gC1qC (Gly-Ser-Ala linker): see m1; also called subunit B; source: 293-F cells, as part of the single chain C1q-scGR, purified
The description is as above.

The target of test [5] is T4, recombinant human long pentraxin PTX3 (human, UniProt P26022 18-381).
T4 construct: human pentraxin 3, recombinant
T4 sequence (P26022 18-381): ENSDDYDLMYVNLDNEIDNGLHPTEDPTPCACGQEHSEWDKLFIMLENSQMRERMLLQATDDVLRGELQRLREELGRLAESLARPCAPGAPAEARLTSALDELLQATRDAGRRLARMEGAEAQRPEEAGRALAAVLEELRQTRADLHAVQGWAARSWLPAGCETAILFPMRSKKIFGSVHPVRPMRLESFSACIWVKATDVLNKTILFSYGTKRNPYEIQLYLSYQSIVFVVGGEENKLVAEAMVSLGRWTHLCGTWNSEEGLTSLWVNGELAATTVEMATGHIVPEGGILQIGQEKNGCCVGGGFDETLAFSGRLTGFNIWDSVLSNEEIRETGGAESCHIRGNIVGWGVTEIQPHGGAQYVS
Kind of test: SPR; Biacore 3000, 25°C; CRT, gC1qR and PTX3 amine-coupled on CM5; C1q samples flowed at 20 μl/min in 50 mM Tris-HCl, 150 mM NaCl, 2 mM CaCl2, 0.005% P20, pH 7.4; global fit 1:1 Langmuir (two-state model for C1q-CRT); apparent KD.

Test [6] has as its target B5. Described as above.
Test [7] deals with B1. The test is described as above.

Usually koff stands for the first-order rate constant of dissociation. Broadly, the kon is a measure of how fast the partners come together. On to B1, for which, in test [1], the Kd came out at 590 nM. Further, in test [2], the Kd was 510 nM, the koff was 0.00234 s⁻¹ and the kon came to 4630 M⁻¹ s⁻¹.

B2: gC1qC module of C1q-scGR (residues 87-217 of mature C1qC) (domain or fragment, human, UniProt P02747 115-245, looked up)
chain: KQKFQSVFTVTRQTHQPPAPNSLIRFNAVLTNPQGDYDTSTGKFTCKVPGLYYFVYHASHTANLCVLLYRSGVKVVTFCGHTSKTNQVNSGGVLLRLQVGEEVWLAVNDYYDMVGIQGSDSVFSGFLLFPD
notes: globular domain of human C1q chain C; numbers count on: the mature protein; In the crystal it is joined on one chain between gC1qA and gC1qB: see m1; also called subunit C; source: 293-F cells, as part of the single chain C1q-scGR, purified
Turning to B2, the binding result in test [3] and in test [4] was “binds” throughout.
As for B3, the binding result in test [4] is given as “binds”.

B4: single-chain recombinant form of human C1q globular region (C1q-scGR) (domain or fragment)
chain: KDQPRPAFSAIRRNPPMGGNVVIFDTVITNQEEPYQNHSGRFVCTVPGYYYFTFQVLSQWEICLSIVSSSRGQVRRSLGFCDTTNKGLFQVVSGGMVLQLQQGDQVWVEKDPKKGHIYQGSEADSVFSGFLIFPSAGSGKQKFQSVFTVTRQTHQPPAPNSLIRFNAVLTNPQGDYDTSTGKFTCKVPGLYYFVYHASHTANLCVLLYRSGVKVVTFCGHTSKTNQVNSGGVLLRLQVGEEVWLAVNDYYDMVGIQGSDSVFSGFLLFPDGSAKATQKIAFSATRTINVPLRRDQTIRFDHVITNMNNNYEPRSGKFTCKVPGLYYFTYHASSRGNLCVNLMRGRERAQKVVTFCDYAYNTFQVTTGGMVLKLEQGENVFLQATDKNSLLGMEGANSIFSGFLLFPDMEA
modifications: N-glycan (biantennary, sialylated) at Asn 124 of C1qA
notes: globular domain of human complement C1q chain A (gC1qA), residues 88-223 of mature C1qA; numbers count on: the mature protein; Gly-Ser-Gly linker between gC1qA and gC1qC; Gly-Ser-Ala linker between gC1qC and gC1qB; globular domain of human complement C1q chain B (gC1qB), residues 90-226 of mature C1qB; An insect-cell version (C1qA 85-223, melittin signal peptide) was also made but was low-yield …
In the case of B4, in test [5], the Kd is 444 nM, the koff was 0.000552 s⁻¹ and the kon is 1320 M⁻¹ s⁻¹. Besides, in test [6], the Kd was determined as 304 nM, the off-rate (koff) stood at 0.00067 s⁻¹ and the kon was found to be 2220 M⁻¹ s⁻¹. Besides, in test [7], the Kd is 494 nM, the koff stood at 0.00136 s⁻¹ and the association rate constant (kon) turned out to be 2800 M⁻¹ s⁻¹.
As for B5, in test [1], the Kd turned out to be 7.2 nM, the koff worked out at 0.000457 s⁻¹ and the kon came out at 68000 M⁻¹ s⁻¹. Besides, in test [2], the Kd came out at 344 nM, the koff worked out at 0.00149 s⁻¹ and the kon amounted to 4400 M⁻¹ s⁻¹.
